Measurements from the Immune Epitope Database (IEDB).

Experiments:
HLA-C*07:02 = assay: IEDB peptide-MHC binding, purified MHC/direct/fluorescence; filed as Kd, often an IC50 or EC50 that approximates it; ≥ and ≤ were set here for values at or beyond the usual limits of such assays
HLA-A*26:02 = assay: IEDB peptide-MHC binding, purified MHC/competitive/fluorescence; filed as Kd, often an IC50 or EC50 that approximates it; ≥ and ≤ were set here for values at or beyond the usual limits of such assays
HLA-A*02:06 = assay: as above
HLA-A*02:01 [1] = assay: as above; conditions: source organism: Human immunodeficiency virus 1
HLA-B*15:17 = assay: as above; conditions: source organism: Human immunodeficiency virus 1
HLA-B*35:01 = assay: as above; conditions: source organism: Human immunodeficiency virus 1
HLA-A*02:03 = assay: as above
HLA-A*24:02 [2] = assay: as above
HLA-C*05:01 = assay: IEDB peptide-MHC binding, purified MHC/direct/fluorescence; filed as Kd, often an IC50 or EC50 that approximates it; ≥ and ≤ were set here for values at or beyond the usual limits of such assays; conditions: source organism: Giardia lamblia ATCC 50803
HLA-C*03:03 = assay: as above; conditions: source organism: Giardia lamblia ATCC 50803
HLA-C*06:02 [3] = assay: as above
HLA-C*08:02 = assay: as above; conditions: source organism: Giardia lamblia ATCC 50803
HLA-C*12:03 = assay: as above; conditions: source organism: Giardia lamblia ATCC 50803
HLA-C*15:02 = assay: as above
HLA-C*04:01 = assay: IEDB peptide-MHC binding, purified MHC/competitive/fluorescence; filed as Kd, often an IC50 or EC50 that approximates it; ≥ and ≤ were set here for values at or beyond the usual limits of such assays
HLA-B*45:06 = assay: as above
HLA-B*27:20 = assay: as above; conditions: source organism: Giardia lamblia ATCC 50803
HLA-B*15:42 = assay: as above
HLA-B*46:01 = assay: as above; conditions: source organism: Giardia lamblia ATCC 50803
HLA-B*83:01 = assay: as above
HLA-C*14:02 [4] = assay: as above
HLA-C*14:02 [5] = assay: IEDB peptide-MHC binding, purified MHC/direct/fluorescence; filed as Kd, often an IC50 or EC50 that approximates it; ≥ and ≤ were set here for values at or beyond the usual limits of such assays; conditions: source organism: Rickettsia felis URRWXCal2
HLA-A*24:02 [6] = assay: IEDB peptide-MHC binding, cellular MHC/competitive/fluorescence; ≥ and ≤ were set here for values at or beyond the usual limits of such assays; conditions: source organism: Human herpesvirus 5 strain AD169
HLA-A*03:01 = assay: IEDB peptide-MHC binding, purified MHC/competitive/fluorescence; ≥ and ≤ were set here for values at or beyond the usual limits of such assays; conditions: source organism: Vaccinia virus WR
HLA-A*11:01 = assay: as above; conditions: source organism: Vaccinia virus WR
HLA-A*01:01 [7] = assay: as above; conditions: source organism: Vaccinia virus WR
HLA-A*02:01 [8] = assay: as above; conditions: source organism: Vaccinia virus WR
HLA-A*24:02 [9] = assay: as above; conditions: source organism: Vaccinia virus WR
HLA-B*15:01 [10] = assay: as above; conditions: source organism: Vaccinia virus WR
HLA-C*06:02 [11] = assay: IEDB peptide-MHC binding, purified MHC/competitive/fluorescence; filed as Kd, often an IC50 or EC50 that approximates it; ≥ and ≤ were set here for values at or beyond the usual limits of such assays; conditions: source organism: Mycobacterium tuberculosis variant bovis BCG str. Pasteur 1173P2
HLA-A*68:23 = assay: as above; conditions: source organism: Mycobacterium tuberculosis variant bovis BCG str. Pasteur 1173P2
HLA-B*40:02 = assay: IEDB peptide-MHC binding, cellular MHC/competitive/fluorescence; ≥ and ≤ were set here for values at or beyond the usual limits of such assays; conditions: source organism: Homo sapiens
HLA-B*39:01 = assay: IEDB peptide-MHC binding, purified MHC/competitive/fluorescence; filed as Kd, often an IC50 or EC50 that approximates it; ≥ and ≤ were set here for values at or beyond the usual limits of such assays; conditions: source organism: Homo sapiens
HLA-A*26:03 = assay: as above; conditions: source organism: Homo sapiens
HLA-B*08:01 = assay: as above; conditions: source organism: Homo sapiens
HLA-B*15:01 [12] = assay: as above; conditions: source organism: Homo sapiens
HLA-B*18:01 = assay: as above; conditions: source organism: Homo sapiens
HLA-A*30:01 = assay: as above; conditions: source organism: Homo sapiens
HLA-A*32:15 = assay: as above; conditions: source organism: Staphylococcus aureus subsp. aureus N315
HLA-A*01:01 [13] = assay: as above; conditions: source organism: Staphylococcus aureus subsp. aureus N315
HLA-A*29:02 = assay: as above; conditions: source organism: Staphylococcus aureus subsp. aureus N315
HLA-A*32:07 = assay: as above; conditions: source organism: Staphylococcus aureus subsp. aureus N315
HLA-A*03:19 = assay: as above; conditions: source organism: human gammaherpesvirus 4
[14] = source organism: Human immunodeficiency virus 1
[15] = source organism: Giardia lamblia ATCC 50803
[16] = source organism: Rickettsia felis URRWXCal2
[17] = source organism: Mycobacterium tuberculosis variant bovis BCG str. Pasteur 1173P2
[18] = source organism: Staphylococcus aureus subsp. aureus N315
[19] = source organism: human gammaherpesvirus 4

For LYNTIAVLY, the Kd (HLA-C*07:02; [14]) was 2130 nM, the Kd (HLA-A*26:02; [14]) was ≥ 20000 nM and the Kd (HLA-A*02:06; [14]) was 759 nM. For the same sequence, the Kd (HLA-A*02:01 [1]) was 2320 nM, the Kd (HLA-B*15:17) was ≥ 20000 nM and the Kd (HLA-B*35:01) was 1870 nM. For the same sequence, the Kd (HLA-A*02:03; [14]) was 721 nM.
In the case of EYLRIPLTI, the Kd (HLA-A*24:02 [2]; source organism: Entamoeba histolytica HM-1:IMSS) is reported as ≤ 0.1 nM.
In the case of YMRERFEPM, the Kd (HLA-C*05:01) is reported as ≥ 20000 nM, the Kd (HLA-C*03:03) is reported as 452 nM and the Kd (HLA-C*06:02 [3]; [15]) is reported as 22 nM. The Kd (HLA-C*08:02) was ≥ 20000 nM, the Kd (HLA-C*12:03) was 38 nM and the Kd (HLA-C*15:02; [15]) was 70 nM. For the same sequence, the Kd (HLA-C*04:01; [15]) was ≥ 5000 nM, the Kd (HLA-B*45:06; [15]) was ≥ 5000 nM and the Kd (HLA-B*27:20) was 0.5 nM. For the same sequence, the Kd (HLA-B*15:42; [15]) was ≥ 5000 nM, the Kd (HLA-B*46:01) was 21.8 nM and the Kd (HLA-B*83:01; [15]) was ≥ 5000 nM. For the same sequence, the Kd (HLA-C*14:02 [4]; [15]) was 0.3 nM.
For RWLPLVSLF, the Kd (HLA-C*06:02 [3]; [16]) was ≥ 20000 nM, the Kd (HLA-C*14:02 [5]) was 399 nM and the Kd (HLA-C*15:02; [16]) was ≥ 20000 nM. The Kd (HLA-A*24:02 [2]; [16]) was ≤ 0.1 nM.
VYALPLKML was tested, and the IC50 (HLA-A*24:02 [6]) was 7500 nM.
In the case of ITCKAFGLY, the IC50 (HLA-A*03:01) is reported as 15400 nM, the IC50 (HLA-A*11:01) is reported as 2820 nM and the IC50 (HLA-A*01:01 [7]) is reported as 1550 nM. For the same sequence, the IC50 (HLA-A*02:01 [8]) was ≥ 173000 nM, the IC50 (HLA-A*24:02 [9]) was ≥ 85100 nM and the IC50 (HLA-B*15:01 [10]) was 14000 nM.
MAAVRTTAL was tested, and the Kd (HLA-C*06:02 [11]) was 104 nM, the Kd (HLA-C*04:01; [17]) was ≥ 20000 nM and the Kd (HLA-B*45:06; [17]) was ≥ 5000 nM. The Kd (HLA-B*15:42; [17]) was ≥ 5000 nM, the Kd (HLA-B*83:01; [17]) was 508 nM and the Kd (HLA-A*68:23) was 5.5 nM. The Kd (HLA-C*14:02 [4]; [17]) was 14.4 nM.
For SSYGNIRAV, the IC50 (HLA-B*40:02) was 1800 nM.
With FRHSVVVPY the Kd (HLA-C*07:02; source organism: Homo sapiens) was ≤ 1 nM, the Kd (HLA-A*26:02; source organism: Homo sapiens) was ≥ 20000 nM and the Kd (HLA-A*02:06; source organism: Homo sapiens) was ≥ 20000 nM. The Kd (HLA-B*39:01) was ≥ 20000 nM, the Kd (HLA-A*26:03) was ≥ 20000 nM and the Kd (HLA-B*08:01) was ≥ 20000 nM. For the same sequence, the Kd (HLA-B*15:01 [12]) was 315 nM, the Kd (HLA-B*18:01) was 477 nM and the Kd (HLA-A*02:03; source organism: Homo sapiens) was ≥ 20000 nM. The Kd (HLA-A*30:01) was 4080 nM.
With MVIKWIHER the Kd (HLA-A*32:15) was 52.5 nM, the Kd (HLA-A*01:01 [13]) was 17000 nM and the Kd (HLA-B*45:06; [18]) was ≥ 5000 nM. For the same sequence, the Kd (HLA-B*15:42; [18]) was ≥ 5000 nM, the Kd (HLA-A*29:02) was 548 nM and the Kd (HLA-A*32:07) was 203 nM.
With WPTPKTHPV the Kd (HLA-A*03:19) was 1080 nM, the Kd (HLA-B*45:06; [19]) was ≥ 5000 nM and the Kd (HLA-B*15:42; [19]) was ≥ 5000 nM. For the same sequence, the Kd (HLA-B*83:01; [19]) was 3470 nM and the Kd (HLA-C*14:02 [4]; [19]) was 142 nM.
